Test results from patent publication US20230212312A1 (published 2023).

B1: 2/99 VH23-DASG/VK9-CYS (antibody, V domains shown)
VH: QSMQESGPGLVKPSQTLSLTCTVSGFSLSSYAMSWIRQHPGKGLEWIGYIWSGGSTDYASWAKSRVTISKTSTTVSLKLSSVTAADTAVYYCARRYGTSYPDYGDASGFDPWGQGTLVTVSS
VL: AIQLTQSPSSLSASVGDRVTITCRASQSISSYLAWYQQKPGKAPKLLIYRASTLASGVPSRFSGSGSGTDFTLTISSLQPEDFATYYCQQCYSSSNVDNTFGGGTKVEI
B2: 2/99 VH23-DASG/VK9-GYS (antibody, V domains shown)
VH: QSMQESGPGLVKPSQTLSLTCTVSGFSLSSYAMSWIRQHPGKGLEWIGYIWSGGSTDYASWAKSRVTISKTSTTVSLKLSSVTAADTAVYYCARRYGTSYPDYGDASGFDPWGQGTLVTVSS
VL: AIQLTQSPSSLSASVGDRVTITCRASQSISSYLAWYQQKPGKAPKLLIYRASTLASGVPSRFSGSGSGTDFTLTISSLQPEDFATYYCQQGYSSSNVDNTFGGGTKVEI
B3: 2/99 VH23-DAQG/VK9-SYA (antibody, V domains shown)
VH: QSMQESGPGLVKPSQTLSLTCTVSGFSLSSYAMSWIRQHPGKGLEWIGYIWSGGSTDYASWAKSRVTISKTSTTVSLKLSSVTAADTAVYYCARRYGTSYPDYGDAQGFDPWGQGTLVTVSS
VL: AIQLTQSPSSLSASVGDRVTITCRASQSISSYLAWYQQKPGKAPKLLIYRASTLASGVPSRFSGSGSGTDFTLTISSLQPEDFATYYCQQSYASSNVDNTFGGGTKVEI
B4: 2/99 VH23-DASG/VK9-SYA (antibody, V domains shown)
VH: QSMQESGPGLVKPSQTLSLTCTVSGFSLSSYAMSWIRQHPGKGLEWIGYIWSGGSTDYASWAKSRVTISKTSTTVSLKLSSVTAADTAVYYCARRYGTSYPDYGDASGFDPWGQGTLVTVSS
VL: AIQLTQSPSSLSASVGDRVTITCRASQSISSYLAWYQQKPGKAPKLLIYRASTLASGVPSRFSGSGSGTDFTLTISSLQPEDFATYYCQQSYASSNVDNTFGGGTKVEI
B5: 2/99 VH23-DANG/VL15 (antibody, V domains shown)
VH: QSMQESGPGLVKPSQTLSLTCTVSGFSLSSYAMSWIRQHPGKGLEWIGYIWSGGSTDYASWAKSRVTISKTSTTVSLKLSSVTAADTAVYYCARRYGTSYPDYGDANGFDPWGQGTLVTVSS
VL: DIVMTQSPDSLAVSLGERATINCKSSQSISSYLIWYQQKPGQPPKLLIYRASTLASGVPDRFSGSGSGTDFTLTISSLQAEDVAVYYCQQAYSSSNVDNTFGGGTKVEIK
B6: 2/99 VH0(rb)/VL1 (antibody, V domains shown)
VH: QSMEESGGRLVTPGTPLTLTCTVSGFSLSSYAMSWVRQAPGKGLEWIGYIWSGGSTDYASWAKGRFTISKTSTTVDLKITSPTTEDTATYFCARRYGTSYPDYGDANGFDPWGPGTLVTVSS
VL: DIQMTQSPSSLSASVGDRVTITCRASQSISSYLNWYQQKPGKAPKLLIYRASSLQSGVPSRFSGSGSGTDFTLTISSLQPEDFATYYCQQSYSSSNVDNTFGGGTKVEIK
B7: 2/99 VH23-DANG/VL2 (antibody, V domains shown)
VH: QSMQESGPGLVKPSQTLSLTCTVSGFSLSSYAMSWIRQHPGKGLEWIGYIWSGGSTDYASWAKSRVTISKTSTTVSLKLSSVTAADTAVYYCARRYGTSYPDYGDANGFDPWGQGTLVTVSS
VL: DIQMTQSPSSLSASVGDRVTITCRASQSISSYLNWYQQKPGKAPKLLIYRASTLASGVPSRFSGSGSGTDFTLTISSLQPEDFATYYCQQSYSSSNVDNTFGGGTKVEIK
B8: 2/99 VH7/VL6 (antibody, V domains shown)
VH: QQLVETGGGLIQPGGSLRLSCAASGFSLSSYAMSWVRQAPGKGLEWIGYIWSGGSTDYASWAKGRFTISRDNSKNTLYLQMNSLRAEDTAVYYCARRYGTSYPDYGDANGFDPWGQGTLVTVSS
VL: AIQLTQSPSSLSASVGDRVTITCRASQSISSYLSWYQQKPGKAPKLLIYRASTLASGVPSRFSGSGSGTDFTLTISSLQPEDFATYYCQQSYSSSNVDNTFGGGTKVEIK
B9: 2/99 VH23-DANG/VL12 (antibody, V domains shown)
VH: QSMQESGPGLVKPSQTLSLTCTVSGFSLSSYAMSWIRQHPGKGLEWIGYIWSGGSTDYASWAKSRVTISKTSTTVSLKLSSVTAADTAVYYCARRYGTSYPDYGDANGFDPWGQGTLVTVSS
VL: DIQMTQSPSSLSASVGDRVTITCRASQSISSYLAWYQQKPGKAPKLLIYRASTLASGVPSRFSGSRSGTDFTLTISSLQPEDFATYYCQQHYSSSNVDNTFGGGTKVEIK
B10: 2/99 VH23-DANG/VL17 (antibody, V domains shown)
VH: QSMQESGPGLVKPSQTLSLTCTVSGFSLSSYAMSWIRQHPGKGLEWIGYIWSGGSTDYASWAKSRVTISKTSTTVSLKLSSVTAADTAVYYCARRYGTSYPDYGDANGFDPWGQGTLVTVSS
VL: AIQLTQSPSSLSASVGDRVTITCRASQSISSYLAWYQQKPGKAPKLLIYRASTLASGVPSRFSGSGSGTDFTLTISSLQPEDFATYYCQQTYSSSNVDNTFGGGTKVEIK
B11: 2/99 VH0(rb)/VL4 (antibody, V domains shown)
VH: QSMEESGGRLVTPGTPLTLTCTVSGFSLSSYAMSWVRQAPGKGLEWIGYIWSGGSTDYASWAKGRFTISKTSTTVDLKITSPTTEDTATYFCARRYGTSYPDYGDANGFDPWGPGTLVTVSS
VL: AYQMTQSPSSLSASVGDRVTITCRASQSISSYLSWYQQKPGKAPKLLIYRASTLASGVPSRFSGSGSGTDFTLTISSLQPEDFATYYCQQSYSSSNVDNTFGGGTKVEIK
B12: 2/99 VH0(rb)/VL2 (antibody, V domains shown)
VH: QSMEESGGRLVTPGTPLTLTCTVSGFSLSSYAMSWVRQAPGKGLEWIGYIWSGGSTDYASWAKGRFTISKTSTTVDLKITSPTTEDTATYFCARRYGTSYPDYGDANGFDPWGPGTLVTVSS
VL: DIQMTQSPSSLSASVGDRVTITCRASQSISSYLNWYQQKPGKAPKLLIYRASTLASGVPSRFSGSGSGTDFTLTISSLQPEDFATYYCQQSYSSSNVDNTFGGGTKVEIK
B13: 2/99 VH0(rb)/VL3 (antibody, V domains shown)
VH: QSMEESGGRLVTPGTPLTLTCTVSGFSLSSYAMSWVRQAPGKGLEWIGYIWSGGSTDYASWAKGRFTISKTSTTVDLKITSPTTEDTATYFCARRYGTSYPDYGDANGFDPWGPGTLVTVSS
VL: AYQMTQSPSSLSASVGDRVTITCRASQSISSYLNWYQQKPGKAPKLLIYRASTLASGVPSRFSGSGSGTDFTLTISSLQPEDFATYYCQQSYSSSNVDNTFGGGTKVEIK
B14: 2/99 VH23-DANG/VL6 (antibody, V domains shown)
VH: QSMQESGPGLVKPSQTLSLTCTVSGFSLSSYAMSWIRQHPGKGLEWIGYIWSGGSTDYASWAKSRVTISKTSTTVSLKLSSVTAADTAVYYCARRYGTSYPDYGDANGFDPWGQGTLVTVSS
VL: AIQLTQSPSSLSASVGDRVTITCRASQSISSYLSWYQQKPGKAPKLLIYRASTLASGVPSRFSGSGSGTDFTLTISSLQPEDFATYYCQQSYSSSNVDNTFGGGTKVEIK
B15: 2/99 VH9/VL2 (antibody, V domains shown)
VH: QQLLESGGGLVQPGGSLRLSCAASGFTFSSYAMSWVRQAPGKGLEWVGYIWSGGSTDYADSVKGRFTISRDNSKNTLYLQMNSLRAEDTAVYYCAKRYGTSYPDYGDANGFDPWGQGTLVTVSS
VL: DIQMTQSPSSLSASVGDRVTITCRASQSISSYLNWYQQKPGKAPKLLIYRASTLASGVPSRFSGSGSGTDFTLTISSLQPEDFATYYCQQSYSSSNVDNTFGGGTKVEIK
B16: 2/99 VH1/VL9-NYA (antibody, V domains shown)
VH: VQLVETGGGLIQPGGSLRLSCAASGFSLSSYAMSWVRQAPGKGLEWVGYIWSGGSTDYADSVKGRFTISRDNSKNTLYLQMNSLRAEDTAVYYCARRYGTSYPDYGDANGFDPWGQGTLVTVSS
VL: AIQLTQSPSSLSASVGDRVTITCRASQSISSYLAWYQQKPGKAPKLLIYRASTLASGVPSRFSGSGSGTDFTLTISSLQPEDFATYYCQQNYASSNVDNTFGGGTKVEI
B17: 2/99 VH5/VL9-NYA (antibody, V domains shown)
VH: QSMEETGGGLIQPGGSLRLSCAASGFSLSSYAMSWVRQAPGKGLEWVGYIWSGGSTDYADSVKGRFTISRDNSKNTLYLQMNSLRAEDTAVYYCARRYGTSYPDYGDANGFDPWGPGTLVTVSS
VL: AIQLTQSPSSLSASVGDRVTITCRASQSISSYLAWYQQKPGKAPKLLIYRASTLASGVPSRFSGSGSGTDFTLTISSLQPEDFATYYCQQNYASSNVDNTFGGGTKVEI
B18: 2/99 VH8/VL9-NYA (antibody, V domains shown)
VH: QQLVETGGGLIQPGGSLRLSCAASGFSLSSYAMSWVRQAPGKGLEWIGYIWSGGSTDYASWAKGRFTISKTSTTLYLQMNSLRAEDTAVYYCARRYGTSYPDYGDANGFDPWGQGTLVTVSS
VL: AIQLTQSPSSLSASVGDRVTITCRASQSISSYLAWYQQKPGKAPKLLIYRASTLASGVPSRFSGSGSGTDFTLTISSLQPEDFATYYCQQNYASSNVDNTFGGGTKVEI
B19: 2/99 VH6/VL9-NYA (antibody, V domains shown)
VH: QQLVETGGGLIQPGGSLRLSCAASGFSLSSYAMSWVRQAPGKGLEWIGYIWSGGSTDYADSVKGRFTISRDNSKNTLYLQMNSLRAEDTAVYYCARRYGTSYPDYGDANGFDPWGQGTLVTVSS
VL: AIQLTQSPSSLSASVGDRVTITCRASQSISSYLAWYQQKPGKAPKLLIYRASTLASGVPSRFSGSGSGTDFTLTISSLQPEDFATYYCQQNYASSNVDNTFGGGTKVEI
B20: 2/99 VH2/VL9-NYA (antibody, V domains shown)
VH: EVQLVETGGGLIQPGGSLRLSCAASGFSLSSYAMSWVRQAPGKGLEWVGYIWSGGSTDYADSVKGRFTISRDNSKNTLYLQMNSLRAEDTAVYYCARRYGTSYPDYGDANGFDPWGQGTLVTVSS
VL: AIQLTQSPSSLSASVGDRVTITCRASQSISSYLAWYQQKPGKAPKLLIYRASTLASGVPSRFSGSGSGTDFTLTISSLQPEDFATYYCQQNYASSNVDNTFGGGTKVEI
B21: 2/99 VH7/VL9-NYA (antibody, V domains shown)
VH: QQLVETGGGLIQPGGSLRLSCAASGFSLSSYAMSWVRQAPGKGLEWIGYIWSGGSTDYASWAKGRFTISRDNSKNTLYLQMNSLRAEDTAVYYCARRYGTSYPDYGDANGFDPWGQGTLVTVSS
VL: AIQLTQSPSSLSASVGDRVTITCRASQSISSYLAWYQQKPGKAPKLLIYRASTLASGVPSRFSGSGSGTDFTLTISSLQPEDFATYYCQQNYASSNVDNTFGGGTKVEI

What follows are binders tested against T1, human transferrin receptor (recombinant, SPR) (human, UniProt P02786 89-760) (assay: SPR B4000 25C (Example 31)).
T1 construct: also called huTfR; human transferrin receptor-biotinylated
T1 sequence (P02786 89-760 limits assumed): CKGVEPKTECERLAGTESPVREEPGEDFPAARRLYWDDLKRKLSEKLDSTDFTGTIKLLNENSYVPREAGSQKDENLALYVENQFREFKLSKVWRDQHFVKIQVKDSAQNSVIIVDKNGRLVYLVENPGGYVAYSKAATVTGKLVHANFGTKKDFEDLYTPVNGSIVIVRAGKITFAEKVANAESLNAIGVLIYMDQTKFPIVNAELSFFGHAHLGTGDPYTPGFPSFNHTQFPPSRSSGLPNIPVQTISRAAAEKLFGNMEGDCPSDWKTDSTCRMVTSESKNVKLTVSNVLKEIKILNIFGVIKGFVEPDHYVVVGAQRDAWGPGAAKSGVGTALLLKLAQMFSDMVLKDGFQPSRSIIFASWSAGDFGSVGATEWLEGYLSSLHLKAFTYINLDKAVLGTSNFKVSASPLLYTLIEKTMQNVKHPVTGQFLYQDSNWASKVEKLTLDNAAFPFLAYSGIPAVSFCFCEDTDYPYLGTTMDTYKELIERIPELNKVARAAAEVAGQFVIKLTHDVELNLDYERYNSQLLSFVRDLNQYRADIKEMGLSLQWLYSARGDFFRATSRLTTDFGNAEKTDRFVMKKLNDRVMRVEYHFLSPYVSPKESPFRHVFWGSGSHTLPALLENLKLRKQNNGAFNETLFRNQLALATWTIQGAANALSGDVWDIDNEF

Going from B1 to B2, the koff rises from 0.00233 s⁻¹ to 0.00373 s⁻¹ (1.6-fold).

Going from B3 to B4, the koff falls from 0.000755 s⁻¹ to 0.000484 s⁻¹ (1.6-fold).

Each binder was assayed against T1, human transferrin receptor … (assay: SPR 25C).

First: B5
Second: B6
The koff of the first is 5.8-fold lower: 0.000986 s⁻¹ for the first, 0.00569 s⁻¹ for the second.

Going from B7 to B8, the koff rises from 0.000715 s⁻¹ to 0.00197 s⁻¹ (2.8-fold).

First: B9
Second: B10
The koff of the first is 2.7-fold higher: 0.00187 s⁻¹ for the first, 0.000694 s⁻¹ for the second.

B11 and B12 are within 1.5-fold of each other in koff: 0.00136 s⁻¹ for the first, 0.00125 s⁻¹ for the second.

B13 and B14 are within 1.5-fold of each other in koff: 0.00132 s⁻¹ for the first, 0.00116 s⁻¹ for the second.

Going from B15 to B16, the koff falls from 0.00399 s⁻¹ to 0.00246 s⁻¹ (1.6-fold).

Compared with B17, B18 is 2-fold lower in koff: 0.00203 s⁻¹ for the first, 0.00101 s⁻¹ for the second.

Going from B19 to B20, the koff rises from 0.00141 s⁻¹ to 0.00221 s⁻¹ (1.6-fold).

Binder B21 has a koff of 0.00121 s⁻¹.
